{"source": "the supplement of paper PMC12764529", "key": {"[1]": {"assay": "folding stability dG unfold (combined trypsin and chymotrypsin); higher = more stable", "method_in_brief": "(§1)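 Digests were run with trypsin and chymotrypsin at 11 concentrations in threefold dilutions, plus a no-protease condition, on designed mini-proteins in a PA-tagged cDNA display construct. The mini-proteins were under 80 residues, had no cysteine, and were kept only when AlphaFold2 dimer inter-PAE was above 15. After sequencing, Bayesian fitting of the counts gave K50, from which unfolding free energy was derived against a sequence-predicted unfolded-state K50 and a shared folded-state K50, per protease or combined.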"}, "[2]": {"assay": "folding stability dG unfold from chymotrypsin proteolysis; higher = more stable", "method_in_brief": "as §1"}, "[3]": {"assay": "folding stability dG unfold from trypsin proteolysis; higher = more stable", "method_in_brief": "as §1"}}, "note": "± gives the half width of the 95% confidence interval.", "data": [{"sequence": "SAGEIEEILIENPETNEVYRITKVETTVELDEDGNLHTTTKVEIEKVEPPPPPEPEVEVEVKPGEKVELSAG [r5_212_TrROS_Hall]", "values": [{"measurement": "folding stability dG unfold", "setting": "[1]", "result": "< -1", "unit": "kcal/mol"}, {"measurement": "folding stability dG unfold", "setting": "[2]", "result": "-0.00362 ± 0.42", "unit": "kcal/mol"}, {"measurement": "folding stability dG unfold", "setting": "[3]", "result": "0.225 ± 0.068", "unit": "kcal/mol"}]}, {"sequence": "SAGGSAGGELPPPPLLVVRVTVRRDGKELELELVVPSLEEALEALRALLPEEDLEIRVEVRLLPSAGGSAGG [r6_113_TrROS_Hall]", "values": [{"measurement": "folding stability dG unfold", "setting": "[1]", "result": "2.67 ± 0.2", "unit": "kcal/mol"}, {"measurement": "folding stability dG unfold", "setting": "[2]", "result": "2.92 ± 0.16", "unit": "kcal/mol"}, {"measurement": "folding stability dG unfold", "setting": "[3]", "result": "2.12 ± 0.089", "unit": "kcal/mol"}]}, {"sequence": "SAGGSAGGSAGIRIYWDPENGWYRVKYPDPDGKPVDEHPMPPDQLPEFLQAGNIEVEPWPSAGGSAGGSAGG [r11_159_TrROS]", "values": [{"measurement": "folding stability dG unfold", "setting": "[1]", "result": "1 ± 0.095", "unit": "kcal/mol"}, {"measurement": "folding stability dG unfold", "setting": "[2]", "result": "1.27 ± 0.081", "unit": "kcal/mol"}, {"measurement": "folding stability dG unfold", "setting": "[3]", "result": "0.759 ± 0.035", "unit": "kcal/mol"}]}, {"sequence": "SAGSKVIMIPWEDAEKLIEDLPPGKNVTIHWMWPKGPYWTHTIEVKGDKIKIEPLPPNQFPGWRIMITKSAG [r5_85_TrROS]", "values": [{"measurement": "folding stability dG unfold", "setting": "[1]", "result": "1.65 ± 0.22", "unit": "kcal/mol"}, {"measurement": "folding stability dG unfold", "setting": "[2]", "result": "1.45 ± 0.17", "unit": "kcal/mol"}, {"measurement": "folding stability dG unfold", "setting": "[3]", "result": "1.86 ± 0.13", "unit": "kcal/mol"}]}, {"sequence": "SAGGSAGGSMPAGVLVTVTITITKPGKPETLDELDVTVAEGDLDALEEEFAEKYPGLEVTVVRSAGGSAGGS [r12_21_JUSTAS]", "values": [{"measurement": "folding stability dG unfold", "setting": "[1]", "result": "1.6 ± 0.1", "unit": "kcal/mol"}, {"measurement": "folding stability dG unfold", "setting": "[2]", "result": "1.92 ± 0.089", "unit": "kcal/mol"}, {"measurement": "folding stability dG unfold", "setting": "[3]", "result": "0.818 ± 0.08", "unit": "kcal/mol"}]}, {"sequence": "SAGGSAGGSAGKIVILVEPSVEELKAAAEALPGAKVTLEEVEVDGRKYLLATIELPPELLSAGGSAGGSAGG [r17_542_TrROS_Hall]", "values": [{"measurement": "folding stability dG unfold", "setting": "[1]", "result": "2.23 ± 0.07", "unit": "kcal/mol"}, {"measurement": "folding stability dG unfold", "setting": "[2]", "result": "2.27 ± 0.033", "unit": "kcal/mol"}, {"measurement": "folding stability dG unfold", "setting": "[3]", "result": "2.17 ± 0.074", "unit": "kcal/mol"}]}, {"sequence": "SAGGSSSASNISTNPTPLPEESVTVTASSDGVITVTITDPNGVPTTYTYNIPSGSIEEAIAEAISSSAGGSA [r2_298_JUSTAS]", "values": [{"measurement": "folding stability dG unfold", "setting": "[1]", "result": "1.97 ± 0.094", "unit": "kcal/mol"}, {"measurement": "folding stability dG unfold", "setting": "[2]", "result": "2.06 ± 0.09", "unit": "kcal/mol"}, {"measurement": "folding stability dG unfold", "setting": "[3]", "result": "1.86 ± 0.059", "unit": "kcal/mol"}]}, {"sequence": "SAGMMPLSHPEAREKAIEFAKKGYLVYVIEFENGESQVIVLESEEEIEELIKELPKPIKKIYVIPPLPESAG [r5_481_TrMRF]", "values": [{"measurement": "folding stability dG unfold", "setting": "[1]", "result": "2.79 ± 0.089", "unit": "kcal/mol"}, {"measurement": "folding stability dG unfold", "setting": "[2]", "result": "3.054 ± 0.017", "unit": "kcal/mol"}, {"measurement": "folding stability dG unfold", "setting": "[3]", "result": "2.11 ± 0.054", "unit": "kcal/mol"}]}, {"sequence": "SAGGSAGGSSTLTLTVRVEVTVEVDGKTYTFTAELTLTVELPPLPEEDLKLYRTDDGELRLVRSAGGSAGGS [r12_1031_TrROS_Hall]", "values": [{"measurement": "folding stability dG unfold", "setting": "[1]", "result": "2.88 ± 0.47", "unit": "kcal/mol"}, {"measurement": "folding stability dG unfold", "setting": "[2]", "result": "2.91 ± 0.24", "unit": "kcal/mol"}, {"measurement": "folding stability dG unfold", "setting": "[3]", "result": "2.94 ± 0.21", "unit": "kcal/mol"}]}, {"sequence": "SAGGSMPVEIKLLEEEVLPDGVTIKKVKAEDGSEMTVTVTKLPGNTYKVTITNPANGTTSTFTLPESAGGSA [r2_361_JUSTAS]", "values": [{"measurement": "folding stability dG unfold", "setting": "[1]", "result": "1.45 ± 0.077", "unit": "kcal/mol"}, {"measurement": "folding stability dG unfold", "setting": "[2]", "result": "1.73 ± 0.055", "unit": "kcal/mol"}, {"measurement": "folding stability dG unfold", "setting": "[3]", "result": "0.932 ± 0.035", "unit": "kcal/mol"}]}, {"sequence": "SAEEPSLEELLAAIEEEAEARAREFLERHPDVPPGAVLKVPVTLTYPLRLGDVEYPVTFEAEVDVVVPASAG [r14_486_TrMRF]", "values": [{"measurement": "folding stability dG unfold", "setting": "[1]", "result": "1.95 ± 0.1", "unit": "kcal/mol"}, {"measurement": "folding stability dG unfold", "setting": "[2]", "result": "2.01 ± 0.086", "unit": "kcal/mol"}, {"measurement": "folding stability dG unfold", "setting": "[3]", "result": "1.74 ± 0.041", "unit": "kcal/mol"}]}, {"sequence": "SAGGSAGGSAGGLGLDLPVFPVKTTTSSSTVPLPNGQTVTVTTTTTTFPGSSSTTTTTTGSAGGSAGGSAGG [r17_59_JUSTAS]", "values": [{"measurement": "folding stability dG unfold", "setting": "[1]", "result": "1.31 ± 0.037", "unit": "kcal/mol"}, {"measurement": "folding stability dG unfold", "setting": "[2]", "result": "1.46 ± 0.037", "unit": "kcal/mol"}, {"measurement": "folding stability dG unfold", "setting": "[3]", "result": "1.02 ± 0.031", "unit": "kcal/mol"}]}, {"sequence": "SAGGSAGGSTIVIRLSKEELENMTAEELAEALAEEGAEVTVTVEYDEETDELVVTIEIHPEDLSAGGSAGGS [r12_716_TrROS_Hall]", "values": [{"measurement": "folding stability dG unfold", "setting": "[1]", "result": "2.11 ± 0.13", "unit": "kcal/mol"}, {"measurement": "folding stability dG unfold", "setting": "[2]", "result": "2.01 ± 0.063", "unit": "kcal/mol"}, {"measurement": "folding stability dG unfold", "setting": "[3]", "result": "2.12 ± 0.12", "unit": "kcal/mol"}]}, {"sequence": "SAGGSAGGSPPPIEIRFPNGWEIDKIDPDDAHIILRMPNWIISIEIDPKDGEIDIDIVPNADVSAGGSAGGS [r12_243_TrROS]", "values": [{"measurement": "folding stability dG unfold", "setting": "[1]", "result": "1.71 ± 0.27", "unit": "kcal/mol"}, {"measurement": "folding stability dG unfold", "setting": "[2]", "result": "2.09 ± 0.32", "unit": "kcal/mol"}, {"measurement": "folding stability dG unfold", "setting": "[3]", "result": "1.15 ± 0.1", "unit": "kcal/mol"}]}, {"sequence": "SAGGMTVETTTVTLAAGTTYTVTTPSDSTVEVVDTETGVVRRFDVPASTDFSVTLPADRTYDITVVRRSAGG [r19_78_JUSTAS]", "values": [{"measurement": "folding stability dG unfold", "setting": "[1]", "result": "1.15 ± 0.032", "unit": "kcal/mol"}, {"measurement": "folding stability dG unfold", "setting": "[2]", "result": "1.35 ± 0.022", "unit": "kcal/mol"}, {"measurement": "folding stability dG unfold", "setting": "[3]", "result": "0.7932 ± 0.0053", "unit": "kcal/mol"}]}, {"sequence": "SAGMVRIELRPRPDGRPIALIDVGAPGGPPRRFEIEVDETETLDDIAERLRAEGFDLPEGIDLEELAGSAGG [r19_263_TrMRF]", "values": [{"measurement": "folding stability dG unfold", "setting": "[1]", "result": "1.91 ± 0.044", "unit": "kcal/mol"}, {"measurement": "folding stability dG unfold", "setting": "[2]", "result": "2.243 ± 0.011", "unit": "kcal/mol"}, {"measurement": "folding stability dG unfold", "setting": "[3]", "result": "1.08 ± 0.018", "unit": "kcal/mol"}]}, {"sequence": "SAGMVIAKVTVKLPNGETKTFVIEAESPEELEEQIIKELEKEYGVSPEEFPIVEIKVEFYDPEKGGLLLSAG [r5_482_TrMRF]", "values": [{"measurement": "folding stability dG unfold", "setting": "[1]", "result": "2.2 ± 0.11", "unit": "kcal/mol"}, {"measurement": "folding stability dG unfold", "setting": "[2]", "result": "2.23 ± 0.033", "unit": "kcal/mol"}, {"measurement": "folding stability dG unfold", "setting": "[3]", "result": "2.13 ± 0.089", "unit": "kcal/mol"}]}, {"sequence": "SALPPGAPPKPERLVLTLTVSEEEVKKGDLEKVRRLVEELVEALREAGFEVKEVEVVEEDGKLTVRIVLDSA [r9_75_TrROS_Hall]", "values": [{"measurement": "folding stability dG unfold", "setting": "[1]", "result": "2.92 ± 0.36", "unit": "kcal/mol"}, {"measurement": "folding stability dG unfold", "setting": "[2]", "result": "2.68 ± 0.17", "unit": "kcal/mol"}, {"measurement": "folding stability dG unfold", "setting": "[3]", "result": "3.04 ± 0.26", "unit": "kcal/mol"}]}, {"sequence": "SAGGSAGGSEKEGTLLVKLINPENPEEKVIPLKFKVKTKEDVDTFLENIKKKYPGVTVEVEDLSAGGSAGGS [r12_65_TrMRF]", "values": [{"measurement": "folding stability dG unfold", "setting": "[1]", "result": "0.643 ± 0.17", "unit": "kcal/mol"}, {"measurement": "folding stability dG unfold", "setting": "[2]", "result": "0.684 ± 0.21", "unit": "kcal/mol"}, {"measurement": "folding stability dG unfold", "setting": "[3]", "result": "0.659 ± 0.049", "unit": "kcal/mol"}]}, {"sequence": "SAGGMSPELAADPNVKRVLRFPEPGVFLAYYPEKGLLLLTPPDGKVLLIEAKPEEAEKLVESGLKPESAGGS [r16_745_TrMRF]", "values": [{"measurement": "folding stability dG unfold", "setting": "[1]", "result": "-0.0606 ± 0.13", "unit": "kcal/mol"}, {"measurement": "folding stability dG unfold", "setting": "[2]", "result": "-0.446 ± 0.19", "unit": "kcal/mol"}, {"measurement": "folding stability dG unfold", "setting": "[3]", "result": "0.028 ± 0.12", "unit": "kcal/mol"}]}, {"sequence": "SAGGSAPPAVEEIAKILEELFPGYRVVAEAEPVRDPETDEVLLRIRVAVFDENGKVILELEITLPLSAGGSA [r15_1048_TrMRF]", "values": [{"measurement": "folding stability dG unfold", "setting": "[1]", "result": "4.19 ± 0.07", "unit": "kcal/mol"}, {"measurement": "folding stability dG unfold", "setting": "[2]", "result": "4.3 ± 0.068", "unit": "kcal/mol"}, {"measurement": "folding stability dG unfold", "setting": "[3]", "result": "3.89 ± 0.054", "unit": "kcal/mol"}]}]}
